Among the data in the Immune Epitope Database (IEDB) are Kd and IC50 values, retold here.

For assay [1], the target named is HLA-B*18:01. As to the kind of experiment: IEDB peptide-MHC binding, purified MHC/competitive/radioactivity; filed as Kd, often an IC50 or EC50 that approximates it; ≥ and ≤ were set here for values at or beyond the usual limits of such assays.
Assay [2] deals with HLA-B*40:01. The description is as above.
The target in assay [3] is HLA-B*40:02. The assay is described as above.
Assay [4] addresses HLA-B*44:02. The description is as above.
The target of assay [5] is HLA-B*44:03. The assay is described as above.
The target of assay [6] is HLA-B*45:01. Described as above.
Assay [7] deals with HLA-A*02:03. The experiment in a line: IEDB peptide-MHC binding, purified MHC/direct/fluorescence; filed as Kd, often an IC50 or EC50 that approximates it; ≥ and ≤ were set here for values at or beyond the usual limits of such assays. The conditions noted are these: source organism: Zaire ebolavirus.
The target of assay [8] is HLA-A*02:11. Described as above. Conditions: source organism: Zaire ebolavirus.
Assay [9] has as its target HLA-A*02:12. The assay is described as above. Conditions: source organism: Zaire ebolavirus.
Assay [10] has as its target HLA-A*02:16. The description is as above. The conditions noted are these: source organism: Zaire ebolavirus.
The target of assay [11] is HLA-A*02:19. The description is as above. The conditions noted are these: source organism: Zaire ebolavirus.
Assay [12] addresses HLA-A*03:01. Described as above.
Assay [13] deals with HLA-A*24:03. Described as above. Conditions: source organism: Zaire ebolavirus.
Assay [14] addresses HLA-A*29:02. The assay is described as above.
Assay [15] addresses HLA-A*68:02. The description is as above. Conditions: source organism: Zaire ebolavirus.
For assay [16], the target named is HLA-B*40:01. The description is as above.
Assay [17] addresses HLA-A*02:01. As to the kind of experiment: IEDB peptide-MHC binding, purified MHC/competitive/fluorescence; filed as Kd, often an IC50 or EC50 that approximates it; ≥ and ≤ were set here for values at or beyond the usual limits of such assays. Conditions: source organism: Zaire ebolavirus.
The target in assay [18] is HLA-A*26:01. The assay is described as above. Conditions: source organism: Zaire ebolavirus.
Assay [19] addresses HLA-B*15:01. The assay is described as above. Conditions: source organism: Zaire ebolavirus.
In assay [20] the target is HLA-B*15:17. The description is as above. The conditions noted are these: source organism: Zaire ebolavirus.
In assay [21] the target is HLA-B*27:03. The assay is described as above. Conditions: source organism: Zaire ebolavirus.
Assay [22] addresses HLA-B*39:01. The assay is described as above. The conditions noted are these: source organism: Zaire ebolavirus.
The target in assay [23] is HLA-B*46:01. Described as above. Conditions: source organism: Zaire ebolavirus.
Assay [24] concerns the target HLA-B*51:01. The description is as above.
In assay [25] the target is HLA-B*57:01. The description is as above. Conditions: source organism: Zaire ebolavirus.
Assay [26] addresses HLA-A*24:02. The experiment in a line: IEDB peptide-MHC binding, purified MHC/competitive/fluorescence; ≥ and ≤ were set here for values at or beyond the usual limits of such assays. The conditions noted are these: source organism: Sudan ebolavirus.
Assay [27] has as its target HLA-A*69:01. As to the kind of experiment: IEDB peptide-MHC binding, purified MHC/competitive/fluorescence; filed as Kd, often an IC50 or EC50 that approximates it; ≥ and ≤ were set here for values at or beyond the usual limits of such assays. The conditions noted are these: source organism: Zaire ebolavirus.
In assay [28] the target is HLA-B*18:01. The description is as above. Conditions: source organism: Zaire ebolavirus.
Assay [29] addresses HLA-A*01:01. As to the kind of experiment: IEDB peptide-MHC binding, purified MHC/direct/fluorescence; filed as Kd, often an IC50 or EC50 that approximates it; ≥ and ≤ were set here for values at or beyond the usual limits of such assays. The conditions noted are these: source organism: Mycobacterium tuberculosis variant bovis.
The target of assay [30] is HLA-A*02:01. The assay is described as above. Conditions: source organism: Mycobacterium tuberculosis variant bovis.
In assay [31] the target is HLA-A*11:01. The description is as above. The conditions noted are these: source organism: Mycobacterium tuberculosis variant bovis.
The target of assay [32] is HLA-A*31:01. Described as above. The conditions noted are these: source organism: Mycobacterium tuberculosis variant bovis.
Assay [33] addresses HLA-A*69:01. The assay is described as above. The conditions noted are these: source organism: Mycobacterium tuberculosis variant bovis.
Assay [34] addresses HLA-B*08:01. Described as above. Conditions: source organism: Mycobacterium tuberculosis variant bovis.
The target in assay [35] is HLA-B*15:01. Described as above. The conditions noted are these: source organism: Mycobacterium tuberculosis variant bovis.
Assay [36] deals with HLA-B*18:01. The assay is described as above. The conditions noted are these: source organism: Mycobacterium tuberculosis variant bovis.
Assay [37] deals with HLA-B*27:05. Described as above. Conditions: source organism: Mycobacterium tuberculosis variant bovis.
The target in assay [38] is HLA-B*44:02. Described as above. Conditions: source organism: Mycobacterium tuberculosis variant bovis.
The target of assay [39] is HLA-B*46:01. Described as above. Conditions: source organism: Mycobacterium tuberculosis variant bovis.
The target in assay [40] is HLA-B*48:01. The assay is described as above. The conditions noted are these: source organism: Mycobacterium tuberculosis variant bovis.
The target in assay [41] is HLA-B*57:01. Described as above. The conditions noted are these: source organism: Mycobacterium tuberculosis variant bovis.
The target of assay [42] is HLA-B*58:01. Described as above. The conditions noted are these: source organism: Mycobacterium tuberculosis variant bovis.
Where [43] appears, read: source organism: Mammarenavirus brazilense.
Where [44] appears, read: source organism: Zaire ebolavirus.
Setting [45] is: source organism: Mammarenavirus juninense.
Where [46] appears, read: source organism: Mammarenavirus machupoense.
[47] abbreviates: source organism: Mycobacterium tuberculosis variant bovis.

As to AENGELTEI, the Kd is ≥ 77.5 µM in assay [1] (setting [43]); 2.03 µM in assay [2] (setting [43]); 0.0478 µM in assay [3] (setting [43]); 0.181 µM in assay [4] (setting [43]); 0.319 µM in assay [5] (setting [43]); 0.074 µM in [6] (setting [43]).

DEMVCKWLL: the Kd in [7], in assay [8], in [9], in assay [10], in [11] and in assay [12] (setting [44]) was ≥ 20 µM throughout. Moreover, the equilibrium dissociation constant (Kd) in [13] was ≥ 20 µM; in [14] (setting [44]) it was ≥ 20 µM; in [15], ≥ 20 µM; in assay [16] (source organism: Reston ebolavirus - Reston) it was 0.387 µM; in [17] it was ≥ 20 µM; in assay [18], ≥ 20 µM. Further, the Kd in assay [19], in assay [20], in assay [21], in assay [22], in [23] and in assay [24] (setting [44]) was ≥ 20 µM in each case. Further, the Kd in assay [25] is ≥ 20 µM.

DETKKQVNLM: the Kd in assay [1] (setting [45]) was 9.01 µM; in assay [2] (setting [45]), 14.6 µM; in [3] (setting [45]), ≥ 70.8 µM; in assay [4] (setting [45]), ≥ 64.6 µM; in assay [5] (setting [45]), ≥ 70.1 µM; in assay [6] (setting [45]), ≥ 33.1 µM.

For the sequence EEVLDVCPL, the equilibrium dissociation constant (Kd) in assay [1] (setting [46]) came to 0.368 µM; in assay [2] (setting [46]), 0.0702 µM; in [3] (setting [46]) it was 0.0852 µM; in [4] (setting [46]), 13.7 µM; in assay [5] (setting [46]) it was 5.44 µM; in assay [6] (setting [46]), 2.48 µM.

In the case of EWAENCYNL, the IC50 in assay [26] was 6.48 µM. Besides, the Kd in [7], in assay [8], in assay [9], in assay [10], in assay [11] and in assay [12] (setting [44]) was ≥ 20 µM each time. Further, the Kd in assay [13], in [14] (setting [44]), in assay [15], in assay [17], in assay [18] and in [27] was ≥ 20 µM each time. In addition, the Kd in [19], in assay [20], in [28], in [21], in assay [22] and in assay [23] was ≥ 20 µM each time. The Kd in assay [24] (setting [44]) and in [25] was ≥ 20 µM in each case.

For TPREAPYEL, the Kd in [29], in [30], in assay [12] (setting [47]), in assay [31], in [14] (setting [47]) and in assay [32] was ≥ 20 µM throughout. Further, the Kd is ≥ 20 µM in assay [33]; 7 µM in assay [34]; ≥ 20 µM in assay [35]; ≥ 20 µM in [36]; ≥ 20 µM in [37]; ≥ 20 µM in assay [16] (setting [47]). Besides, the Kd in [38], in assay [39], in assay [40], in [41], in assay [42] and in [24] (setting [47]) was ≥ 20 µM in each case.

Usually Kd stands for the constant that tells how readily two partners part at equilibrium. One may read the IC50 as the point on the concentration scale where inhibition reaches its midpoint. A high value points to a need for much substance.
